{"source": "patent US20200216522A1", "about": "(DENALI THERAPEUTICS, published 2020)", "test_in_all_cases": "peptide array", "key": {"Peptide_007": {"biological_target": "T1, Peptide_007 (human)", "T1 peptide": "MHQDQEGDTDAGLKE", "summary_of_the_method": "(§1)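 Overlapping 15-mer peptides (5-aa offset) spanning human 2N4R Tau spotted in triplicate on slides; antibodies bound 2 h at room temperature in 3% BSA-TBST (chimeric IgG 5 μg/mL; mouse IgG 30 μg/mL). Detection 1 h with fluorescent anti-human (568 nm) or anti-mouse (647 nm) secondary; fluorescence imaging aligned to array map.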"}, "Peptide_003": {"biological_target": "T2, Peptide_003 (human)", "T2 peptide": "MEDHAGTYGLGDRKD", "summary_of_the_method": "as §1"}, "Peptide_023": {"biological_target": "T3, Peptide_023 (human)", "T3 peptide": "TPSLEDEAAGHVTQA", "summary_of_the_method": "as §1"}, "Peptide_020": {"biological_target": "T4, Peptide_020 (human)", "T4 peptide": "EIPEGTTAEEAGIGD", "summary_of_the_method": "as §1"}, "Peptide_016": {"biological_target": "T5, Peptide_016 (human)", "T5 peptide": "TAPLVDEGAPGKQAA", "summary_of_the_method": "as §1"}, "Peptide_015": {"biological_target": "T6, Peptide_015 (human)", "T6 peptide": "TAEDVTAPLVDEGAP", "summary_of_the_method": "as §1"}, "Peptide_036": {"biological_target": "T7, Peptide_036 (human)", "T7 peptide": "PPAPKTPPSSGEPPK", "summary_of_the_method": "as §1"}, "Peptide_034": {"biological_target": "T8, Peptide_034 (human)", "T8 peptide": "ANATRIPAKTPPAPK", "summary_of_the_method": "as §1"}, "Peptide_032": {"biological_target": "T9, Peptide_032 (human)", "T9 peptide": "GAAPPGQKGQANATR", "summary_of_the_method": "as §1"}, "Peptide_031": {"biological_target": "T10, Peptide_031 (human)", "T10 peptide": "IATPRGAAPPGQKGQ", "summary_of_the_method": "as §1"}, "Peptide_030": {"biological_target": "T11, Peptide_030 (human)", "T11 peptide": "DGKTKIATPRGAAPP", "summary_of_the_method": "as §1"}, "Peptide_026": {"biological_target": "T12, Peptide_026 (human)", "T12 peptide": "RMVSKSKDGTGSDDK", "summary_of_the_method": "as §1"}, "Peptide_025": {"biological_target": "T13, Peptide_025 (human)", "T13 peptide": "HVTQARMVSKSKDGT", "summary_of_the_method": "as §1"}, "process-control peptide": {"biological_target": "T14, process-control peptide", "T14 construct": "array control, not a Tau peptide", "T14 peptide": "GGSGGGSDYKDDDDK", "summary_of_the_method": "as §1"}, "Peptide_046": {"biological_target": "T15, Peptide_046 (human)", "T15 peptide": "VAVVRTPPKSPSSAK", "summary_of_the_method": "as §1"}, "Peptide_042": {"biological_target": "T16, Peptide_042 (human)", "T16 peptide": "PGSRSRTPSLPTPPT", "summary_of_the_method": "as §1"}, "Peptide_041": {"biological_target": "T17, Peptide_041 (human)", "T17 peptide": "GSPGTPGSRSRTPSL", "summary_of_the_method": "as §1"}, "Peptide_038": {"biological_target": "T18, Peptide_038 (human)", "T18 peptide": "GEPPKSGDRSGYSSP", "summary_of_the_method": "as §1"}, "Peptide_059": {"biological_target": "T19, Peptide_059 (human)", "T19 peptide": "CGSKDNIKHVPGGGS", "summary_of_the_method": "as §1"}, "Peptide_058": {"biological_target": "T20, Peptide_058 (human)", "T20 peptide": "NVQSKCGSKDNIKHV", "summary_of_the_method": "as §1"}, "Peptide_056": {"biological_target": "T21, Peptide_056 (human)", "T21 peptide": "QIINKKLDLSNVQSK", "summary_of_the_method": "as §1"}, "Peptide_055": {"biological_target": "T22, Peptide_055 (human)", "T22 peptide": "GGGKVQIINKKLDLS", "summary_of_the_method": "as §1"}, "Peptide_052": {"biological_target": "T23, Peptide_052 (human)", "T23 peptide": "VKSKIGSTENLKHQP", "summary_of_the_method": "as §1"}, "Peptide_051": {"biological_target": "T24, Peptide_051 (human)", "T24 peptide": "PDLKNVKSKIGSTEN", "summary_of_the_method": "as §1"}, "Peptide_050": {"biological_target": "T25, Peptide_050 (human)", "T25 peptide": "APVPMPDLKNVKSKI", "summary_of_the_method": "as §1"}, "Peptide_063": {"biological_target": "T26, Peptide_063 (human)", "T26 peptide": "KPVDLSKVTSKCGSL", "summary_of_the_method": "as §1"}, "Peptide_062": {"biological_target": "T27, Peptide_062 (human)", "T27 peptide": "VQIVYKPVDLSKVTS", "summary_of_the_method": "as §1"}, "Peptide_061": {"biological_target": "T28, Peptide_061 (human)", "T28 peptide": "PGGGSVQIVYKPVDL", "summary_of_the_method": "as §1"}, "Peptide_082": {"biological_target": "T29, Peptide_082 (human)", "T29 peptide": "RHLSNVSSTGSIDMV", "summary_of_the_method": "as §1"}, "Peptide_079": {"biological_target": "T30, Peptide_079 (human)", "T30 peptide": "EIVYKSPVVSGDTSP", "summary_of_the_method": "as §1"}, "Peptide_078": {"biological_target": "T31, Peptide_078 (human)", "T31 peptide": "TDHGAEIVYKSPVVS", "summary_of_the_method": "as §1"}, "Peptide_077": {"biological_target": "T32, Peptide_077 (human)", "T32 peptide": "NAKAKTDHGAEIVYK", "summary_of_the_method": "as §1"}, "Peptide_075": {"biological_target": "T33, Peptide_075 (human)", "T33 peptide": "IETHKLTFRENAKAK", "summary_of_the_method": "as §1"}, "Peptide_072": {"biological_target": "T34, Peptide_072 (human)", "T34 peptide": "SLDNITHVPGGGNKK", "summary_of_the_method": "as §1"}, "Peptide_087": {"biological_target": "T35, Peptide_087 (human)", "T35 peptide": "TLADEVSASLAKQGL", "summary_of_the_method": "as §1"}}}
{"binder": "murine anti-Tau hybridoma antibody 17G2.A1 (antibody, V domains shown, mouse IgG from hybridoma; also called anti-Tau 17G2.A1) VH: QVQLQQPGAELVGPGSSVKLSCKASGYTFINYWIDWMKQSPGQGLEWIGNIYPSDSESHYNQKFTDKATLTVDISSSTAYLQLSSLTSEDSAVYYCALYSKGYWGQGTSVTVSS VL: DVLMTQTPLSLPVTLGDQASISCRSSQNIVHTNGNTYLEWYLQKPGQSPKLLIYKLSSRFSGVPDRFSGSGSGTDFTLKISRVEAEDLGVYYCFQGSHLPFTFGGGTKLEIKR", "values": [{"measurement": "binding result", "setting": "Peptide_007", "result": "no binding (tested: 30 ug/mL)"}, {"measurement": "binding result", "setting": "Peptide_003", "result": "no binding (tested: 30 ug/mL)"}, {"measurement": "binding result", "setting": "Peptide_023", "result": "no binding (tested: 30 ug/mL)"}, {"measurement": "binding result", "setting": "Peptide_020", "result": "no binding (tested: 30 ug/mL)"}, {"measurement": "binding result", "setting": "Peptide_016", "result": "no binding (tested: 30 ug/mL)"}, {"measurement": "binding result", "setting": "Peptide_015", "result": "no binding (tested: 30 ug/mL)"}, {"measurement": "binding result", "setting": "Peptide_036", "result": "no binding (tested: 30 ug/mL)"}, {"measurement": "binding result", "setting": "Peptide_034", "result": "no binding (tested: 30 ug/mL)"}, {"measurement": "binding result", "setting": "Peptide_032", "result": "no binding (tested: 30 ug/mL)"}, {"measurement": "binding result", "setting": "Peptide_031", "result": "no binding (tested: 30 ug/mL)"}, {"measurement": "binding result", "setting": "Peptide_030", "result": "no binding (tested: 30 ug/mL)"}, {"measurement": "binding result", "setting": "Peptide_026", "result": "no binding (tested: 30 ug/mL)"}, {"measurement": "binding result", "setting": "Peptide_025", "result": "no binding (tested: 30 ug/mL)"}, {"measurement": "binding result", "setting": "process-control peptide", "result": "no binding (tested: 30 ug/mL)"}, {"measurement": "binding result", "setting": "Peptide_046", "result": "no binding (tested: 30 ug/mL)"}, {"measurement": "binding result", "setting": "Peptide_042", "result": "no binding (tested: 30 ug/mL)"}, {"measurement": "binding result", "setting": "Peptide_041", "result": "no binding (tested: 30 ug/mL)"}, {"measurement": "binding result", "setting": "Peptide_038", "result": "binds"}, {"measurement": "binding result", "setting": "Peptide_059", "result": "no binding (tested: 30 ug/mL)"}, {"measurement": "binding result", "setting": "Peptide_058", "result": "no binding (tested: 30 ug/mL)"}, {"measurement": "binding result", "setting": "Peptide_056", "result": "no binding (tested: 30 ug/mL)"}, {"measurement": "binding result", "setting": "Peptide_055", "result": "no binding (tested: 30 ug/mL)"}, {"measurement": "binding result", "setting": "Peptide_052", "result": "no binding (tested: 30 ug/mL)"}, {"measurement": "binding result", "setting": "Peptide_051", "result": "no binding (tested: 30 ug/mL)"}, {"measurement": "binding result", "setting": "Peptide_050", "result": "no binding (tested: 30 ug/mL)"}, {"measurement": "binding result", "setting": "Peptide_063", "result": "no binding (tested: 30 ug/mL)"}, {"measurement": "binding result", "setting": "Peptide_062", "result": "no binding (tested: 30 ug/mL)"}, {"measurement": "binding result", "setting": "Peptide_061", "result": "no binding (tested: 30 ug/mL)"}, {"measurement": "binding result", "setting": "Peptide_082", "result": "no binding (tested: 30 ug/mL)"}, {"measurement": "binding result", "setting": "Peptide_079", "result": "no binding (tested: 30 ug/mL)"}, {"measurement": "binding result", "setting": "Peptide_078", "result": "no binding (tested: 30 ug/mL)"}, {"measurement": "binding result", "setting": "Peptide_077", "result": "no binding (tested: 30 ug/mL)"}, {"measurement": "binding result", "setting": "Peptide_075", "result": "no binding (tested: 30 ug/mL)"}, {"measurement": "binding result", "setting": "Peptide_072", "result": "no binding (tested: 30 ug/mL)"}, {"measurement": "binding result", "setting": "Peptide_087", "result": "no binding (tested: 30 ug/mL)"}]}
